Four substances from article PMC5001591 can be followed below.

Holding throughout (conditions): EMSA: 4 nM 32P-RNA, 1X RNA Structure Buffer, 1 ug yeast RNA in 10 ul, 37 C 15 min (plus 1 h room temperature with mRNA); native 6% PAGE, 0.5X TBE, 4 C; pH and …
Series [1] concerns Hfq. Nature of the series: EMSA. On the technique in general: A gel shift assay detects complexes by their altered migration in electrophoresis.
The target in series [2] is Hfq (UniProt P0A6X3). Nature of the series: footprinting (RNase T1).
In series [3] the target is Hfq (UniProt P0A6X3). Nature of the series: EMSA.

Sequence of Hfq (UniProt P0A6X3) (P0A6X3 2-102): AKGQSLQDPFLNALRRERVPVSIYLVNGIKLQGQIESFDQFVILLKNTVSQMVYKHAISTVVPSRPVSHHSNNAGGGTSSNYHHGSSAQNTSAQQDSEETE

With SdsN137, in the series with Hfq [1], the equilibrium dissociation constant (Kd) – broadly, the concentration at which binding is half-saturated – was 80 nM.
Still for that read-out and setting: the same measure for SdsN178: 28 nM.
As to “GGGUUCAAACUAUCACAUAAAUAAGAUUUAUAUAUAAUUUAUAUUAUUCAGGCAAUGAAUUACUUUUGCAAGCCAUCGCAUUCUCUUAUGUUAUUAAUGAGUUAUGCUGAUUUGUUAAGCAGUUUUAUCAGGCUUGAAAUGGCGUCCAGCCCCGACAGGUGAAUCGUCGGGGCUGAUUUUUUC [SdsN178]”, the binding result in the series with Hfq [2] is reported as “binds”. For the same substance, in the series with Hfq [3], the Kd worked out at 28 nM.
Taken in the same sequence, the figures for “GGGAUUCAGGCAAUGAAUUACUUUUGCAAGCCAUCGCAUUCUCUUAUGUUAUUAAUGAGUUAUGCUGAUUUGUUAAGCAGUUUUAUCAGGCUUGAAAUGGCGUCCAGCCCCGACAGGUGAAUCGUCGGGGCUGAUUUUUUC [SdsN137]” were “binds” and 80 nM.
